Ki data for 3 molecules are collected here from article PMC6201908, “Affinity, potency, efficacy, and selectivity of neurokinin A analogs at human recombinant NK2 and NK1 receptors” (PLoS ONE, 2018).

One assay has as its target T1, NK2 receptor (Homo sapiens, UniProt P21452).
T1 chain: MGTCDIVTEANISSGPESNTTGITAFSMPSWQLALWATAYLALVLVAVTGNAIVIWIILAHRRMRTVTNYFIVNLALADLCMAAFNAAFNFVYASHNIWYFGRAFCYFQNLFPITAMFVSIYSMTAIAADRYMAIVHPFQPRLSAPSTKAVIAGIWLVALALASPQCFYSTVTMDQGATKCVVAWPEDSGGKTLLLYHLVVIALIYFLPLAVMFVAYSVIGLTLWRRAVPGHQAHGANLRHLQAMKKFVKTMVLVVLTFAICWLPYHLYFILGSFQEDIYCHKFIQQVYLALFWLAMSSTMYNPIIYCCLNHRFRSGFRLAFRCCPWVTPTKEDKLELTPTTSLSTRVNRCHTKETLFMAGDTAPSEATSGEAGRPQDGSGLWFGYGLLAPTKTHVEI
In words: [125I]-NKA displacement.

The target of the next assay is T2, NK1 receptor (Homo sapiens, UniProt P25103).
T2 chain: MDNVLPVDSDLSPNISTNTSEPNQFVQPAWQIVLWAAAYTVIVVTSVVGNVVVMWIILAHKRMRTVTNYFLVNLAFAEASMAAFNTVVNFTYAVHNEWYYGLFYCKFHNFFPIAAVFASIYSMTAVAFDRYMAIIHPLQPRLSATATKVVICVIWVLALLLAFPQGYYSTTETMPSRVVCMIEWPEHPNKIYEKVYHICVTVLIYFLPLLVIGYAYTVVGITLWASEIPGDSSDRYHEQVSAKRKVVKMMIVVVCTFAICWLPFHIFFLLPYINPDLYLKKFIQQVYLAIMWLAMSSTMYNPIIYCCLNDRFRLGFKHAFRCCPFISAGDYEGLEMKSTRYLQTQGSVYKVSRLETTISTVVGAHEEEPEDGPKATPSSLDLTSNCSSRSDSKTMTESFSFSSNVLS
In words: [3H]-Septide displacement.

Non-standard residues stand in square brackets, D forms with d. No end group written: not given here. NMeL = CN[C@@H](CC(C)C)C(=O)O

B1: [Arg5,MeLeu9]-NKA(4-10) (peptide)
chain: DRFVG[NMeL]M-NH2
modifications: N-terminus assumed
SMILES: CSCC[C@H](NC(=O)[C@H](CC(C)C)N(C)C(=O)CNC(=O)[C@@H](NC(=O)[C@H](Cc1ccccc1)NC(=O)[C@H](CCCNC(=N)N)NC(=O)[C@@H](N)CC(=O)O)C(C)C)C(N)=O
Regarding B1, the results for the inhibition constant Ki in the assay with NK2 receptor and with NK1 receptor were 0.12 nM and 20.9 nM, respectively.

Consider DRFVGLM-NH2 [[Arg5]-NKA(4-10)], for which the inhibition constant Ki (usually a dissociation constant, usually derived from enzyme kinetics or from competition with a known ligand) in the assay with NK2 receptor came to 0.31 nM; with NK1 receptor, 8.3 nM.

For the molecule DKFVG[NMeL]M-NH2 [[Lys5,MeLeu9]-NKA(4-10)], the figures for the Ki with NK2 receptor and in the assay with NK1 receptor were 0.2 nM and 50.1 nM, respectively.
